For one substance, stoichiometry N results are on record in publication PMC8402574.

In this test the target is NG19 (Non-Glycosylated protein of 19 kDa, S371 to F541 of the SARS-CoV-2 Spike protein RBD) (SARS-CoV-2) (UniProt P0DTC2). The experiment in a line: Tricine-SDS-PAGE under non-reducing conditions.

Usually stoichiometry N stands for the number of molecules, sites or subunits per partner or assembly. In the case of “NG19 (Non-Glycosylated protein of 19 kDa, S371 to F541 of the SARS-CoV-2 Spike protein RBD) (from UniProt P0DTC2 371-541) (domain or fragment)”, the stoichiometry N came out at 2.
